Laboratory results published in paper PMC9820991, “Elucidating the Interaction between Pyridoxine 5′-Phosphate Oxidase and Dopa Decarboxylase: Activation of B6-Dependent Enzyme” (International Journal of Molecular Sciences, 2022).

How the values were obtained:
AAT [1] = target: AAT (UniProt P17174); experiment: FP/SPR; details: cited from earlier work
GAD = GAD (UniProt Q99259); experiment: FP/SPR; details: cited from earlier work
AAT [2] = target: AAT (UniProt P17174); experiment: fluorescence spectroscopy; details: cited from earlier work
[3] = target: T1, human dopa decarboxylase, holo form (human, UniProt P20711 1-480, PLP as internal aldimine on Lys303); experiment: ITC; PNPO titrated into holoDDC or apoDDC in the cell; MICROCAL PEAQ-ITC, 25 °C, 19 injections of 2 µL; 50 mM potassium phosphate pH 7.4, 150 mM NaCl; at least triplicate; details: both partners purified
T1 construct: also called holoDDC; DDC; source: E. coli BL21(DE3)pLysS, purified (Histrap Ni2+ column, dialysis against PLP); not shown: His tag (from the Histrap column)
T1 sequence (looked up): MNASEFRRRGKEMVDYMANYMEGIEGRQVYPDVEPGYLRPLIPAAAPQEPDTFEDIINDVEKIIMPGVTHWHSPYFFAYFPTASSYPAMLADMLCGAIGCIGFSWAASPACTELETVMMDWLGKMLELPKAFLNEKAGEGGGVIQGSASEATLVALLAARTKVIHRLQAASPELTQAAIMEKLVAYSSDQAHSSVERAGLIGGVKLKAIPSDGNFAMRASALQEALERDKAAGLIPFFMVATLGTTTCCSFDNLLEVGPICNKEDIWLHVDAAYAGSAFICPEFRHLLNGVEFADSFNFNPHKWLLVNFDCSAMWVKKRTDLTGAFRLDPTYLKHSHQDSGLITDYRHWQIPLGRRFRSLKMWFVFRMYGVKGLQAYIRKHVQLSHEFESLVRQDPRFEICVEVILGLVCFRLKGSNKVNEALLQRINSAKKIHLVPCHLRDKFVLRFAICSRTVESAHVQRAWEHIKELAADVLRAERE

[4] = target: T2, human dopa decarboxylase, apo form (human, UniProt P20711 1-480); experiment: as above; details: both partners purified
T2 construct: same chain as m2 without PLP; Made from holoDDC by removal of the cofactor; also called apoDDC; source: E. coli BL21(DE3)pLysS, purified (Histrap Ni2+ column); PLP removed with 5 mM hydroxylamine and dialysis; not shown: His tag (from the Histrap column)
T2 sequence (looked up): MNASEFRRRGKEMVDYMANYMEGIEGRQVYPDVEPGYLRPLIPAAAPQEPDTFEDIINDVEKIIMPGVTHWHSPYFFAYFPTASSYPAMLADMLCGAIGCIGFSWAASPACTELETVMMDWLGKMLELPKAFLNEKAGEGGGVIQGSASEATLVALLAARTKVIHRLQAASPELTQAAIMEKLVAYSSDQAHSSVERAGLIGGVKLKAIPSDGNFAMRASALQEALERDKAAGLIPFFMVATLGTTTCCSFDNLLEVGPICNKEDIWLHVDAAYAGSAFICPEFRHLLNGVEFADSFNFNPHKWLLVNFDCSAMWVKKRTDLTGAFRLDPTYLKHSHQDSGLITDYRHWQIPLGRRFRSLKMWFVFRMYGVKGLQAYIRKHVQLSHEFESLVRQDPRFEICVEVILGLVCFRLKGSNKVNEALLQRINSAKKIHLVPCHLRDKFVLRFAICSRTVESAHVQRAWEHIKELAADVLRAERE

[5] = target: T1, human dopa decarboxylase, holo form; experiment: SPR; Biacore T200, 25 °C; apoDDC, holoDDC and holoSHMT immobilised on a CM5 chip by amine coupling; analytes PNPO and albumin 100 to 1.5625 µM in PBS-P (10 mM phosphate pH 7.4, 140 mM NaCl, 3 mM KCl, 0.05% P20), 50 µL/min; details: both partners purified
[6] = target: T3, serine hydroxymethyltransferase (rabbit cytoplasmic), holo form (rabbit, UniProt P07511 1-484, PLP cofactor (holo form), residue not stated); experiment: as above; details: both partners purified
T3 construct: rabbit cytoplasmic serine hydroxymethyltransferase, recombinant, holo form; Positive control of the SPR experiment; also called holoSHMT; SHMT
T3 sequence (looked up): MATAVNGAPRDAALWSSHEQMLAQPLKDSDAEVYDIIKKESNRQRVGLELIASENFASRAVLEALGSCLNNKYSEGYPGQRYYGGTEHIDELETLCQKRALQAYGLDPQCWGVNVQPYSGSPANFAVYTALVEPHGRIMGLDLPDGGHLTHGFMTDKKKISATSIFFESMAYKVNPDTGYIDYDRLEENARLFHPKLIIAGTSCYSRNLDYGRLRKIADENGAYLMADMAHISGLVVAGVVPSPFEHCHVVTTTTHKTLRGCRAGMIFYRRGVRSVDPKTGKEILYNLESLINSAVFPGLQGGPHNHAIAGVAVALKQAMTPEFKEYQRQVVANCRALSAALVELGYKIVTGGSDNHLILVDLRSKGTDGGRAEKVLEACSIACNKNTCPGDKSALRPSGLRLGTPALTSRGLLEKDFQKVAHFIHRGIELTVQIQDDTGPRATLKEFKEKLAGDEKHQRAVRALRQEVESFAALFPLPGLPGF

Sequence of PLK (O00764 whole entry): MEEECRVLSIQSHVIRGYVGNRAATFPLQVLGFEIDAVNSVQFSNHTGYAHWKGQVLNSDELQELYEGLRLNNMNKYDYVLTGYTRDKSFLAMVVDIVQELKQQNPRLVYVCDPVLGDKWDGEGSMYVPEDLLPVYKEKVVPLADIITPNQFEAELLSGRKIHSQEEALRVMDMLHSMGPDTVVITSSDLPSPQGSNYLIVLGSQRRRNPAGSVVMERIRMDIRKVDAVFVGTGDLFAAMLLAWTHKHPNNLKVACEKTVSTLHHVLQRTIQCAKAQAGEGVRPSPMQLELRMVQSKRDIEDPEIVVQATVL
Sequence of AAT (P17174 2-413): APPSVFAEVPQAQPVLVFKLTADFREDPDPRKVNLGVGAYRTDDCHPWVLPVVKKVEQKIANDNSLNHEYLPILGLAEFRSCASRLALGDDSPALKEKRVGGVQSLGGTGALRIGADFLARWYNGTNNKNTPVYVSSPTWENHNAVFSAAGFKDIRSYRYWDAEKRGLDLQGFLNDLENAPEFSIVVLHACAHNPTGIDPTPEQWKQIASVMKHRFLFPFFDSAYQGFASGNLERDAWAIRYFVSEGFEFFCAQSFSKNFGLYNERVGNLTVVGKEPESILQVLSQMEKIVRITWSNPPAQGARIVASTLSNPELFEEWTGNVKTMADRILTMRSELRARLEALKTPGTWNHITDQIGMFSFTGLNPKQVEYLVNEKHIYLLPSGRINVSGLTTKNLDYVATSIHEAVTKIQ
Sequence of GAD (Q99259 whole entry): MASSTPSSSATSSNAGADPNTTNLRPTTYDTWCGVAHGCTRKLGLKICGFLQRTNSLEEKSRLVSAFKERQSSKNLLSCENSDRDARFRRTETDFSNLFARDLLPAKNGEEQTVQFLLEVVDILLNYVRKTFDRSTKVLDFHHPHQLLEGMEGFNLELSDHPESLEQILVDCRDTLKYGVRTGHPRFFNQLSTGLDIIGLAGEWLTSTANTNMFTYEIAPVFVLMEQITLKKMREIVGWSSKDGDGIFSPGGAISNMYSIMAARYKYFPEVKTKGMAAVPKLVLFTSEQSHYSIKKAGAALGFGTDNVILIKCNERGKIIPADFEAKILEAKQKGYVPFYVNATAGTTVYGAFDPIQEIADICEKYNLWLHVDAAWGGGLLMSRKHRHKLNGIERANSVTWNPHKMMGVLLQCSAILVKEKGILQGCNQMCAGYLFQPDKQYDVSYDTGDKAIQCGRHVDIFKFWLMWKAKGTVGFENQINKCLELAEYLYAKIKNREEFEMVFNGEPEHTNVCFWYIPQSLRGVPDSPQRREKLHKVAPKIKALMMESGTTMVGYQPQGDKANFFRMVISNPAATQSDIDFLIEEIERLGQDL

Row | Molecule | Kd (AAT [1]) | Kd (GAD) | Kd (AAT [2]) | Kd [3] | dH [3] | stoichiometry N [3] | Kd [4] | dH [4] | stoichiometry N [4] | Kd [5] | Kd [6]
1 | PLK (from UniProt O00764) | 4.9 µM | 2.7 µM | 3 µM |  |  |  |  |  |  |  | 
2 | human pyridoxine 5′-phosphate oxidase (enzyme, UniProt Q9NVS9 1-261, looked up, human pyridoxine 5′-phosphate oxidase (PNPO), recombinant; FMN-dependent enzyme; FMN was present during lysis and the first dialysis; also called PNPO; hPNPO; source: E. coli, purified (Histrap Ni2+ column, dialysis)) MTCWLRGVTATFGRPAEWPGYLSHLCGRSAAMDLGPMRKSYRGDREAFEETHLTSLDPVKQFAAWFEEAVQCPDIGEANAMCLATCTRDGKPSARMLLLKGFGKDGFRFFTNFESRKGKELDSNPFASLVFYWEPLNRQVRVEGPVKKLPEEEAECYFHSRPKSSQIGAVVSHQSSVIPDREYLRKKNEELEQLYQDQEVPKPKSWGGYVLYPQVMEFWQGQTNRLHDRIVFRRGLPTGDSPLGPMTHRGEEDWLYERLAP |  |  |  | 2.59 ± 0.11 µM | -2.33 ± 0.1 kcal/mol | 0.94 ± 0.04 | 0.92 ± 0.07 µM | -3.03 ± 0.1 kcal/mol | 0.52 ± 0.01 | 3.7 µM | 15.4 µM
